The values below are quoted from earlier work in PMC10060530.

One data set addresses NaV1.7 (Homo sapiens) (UniProt Q15858).
The target in data set [1] is NaV1.4 (Rattus norvegicus) (UniProt P15390).
The target of data set [2] is NaV1.2 (Rattus norvegicus) (UniProt P04775).
Sequence of UniProt P04775 (P04775 whole entry): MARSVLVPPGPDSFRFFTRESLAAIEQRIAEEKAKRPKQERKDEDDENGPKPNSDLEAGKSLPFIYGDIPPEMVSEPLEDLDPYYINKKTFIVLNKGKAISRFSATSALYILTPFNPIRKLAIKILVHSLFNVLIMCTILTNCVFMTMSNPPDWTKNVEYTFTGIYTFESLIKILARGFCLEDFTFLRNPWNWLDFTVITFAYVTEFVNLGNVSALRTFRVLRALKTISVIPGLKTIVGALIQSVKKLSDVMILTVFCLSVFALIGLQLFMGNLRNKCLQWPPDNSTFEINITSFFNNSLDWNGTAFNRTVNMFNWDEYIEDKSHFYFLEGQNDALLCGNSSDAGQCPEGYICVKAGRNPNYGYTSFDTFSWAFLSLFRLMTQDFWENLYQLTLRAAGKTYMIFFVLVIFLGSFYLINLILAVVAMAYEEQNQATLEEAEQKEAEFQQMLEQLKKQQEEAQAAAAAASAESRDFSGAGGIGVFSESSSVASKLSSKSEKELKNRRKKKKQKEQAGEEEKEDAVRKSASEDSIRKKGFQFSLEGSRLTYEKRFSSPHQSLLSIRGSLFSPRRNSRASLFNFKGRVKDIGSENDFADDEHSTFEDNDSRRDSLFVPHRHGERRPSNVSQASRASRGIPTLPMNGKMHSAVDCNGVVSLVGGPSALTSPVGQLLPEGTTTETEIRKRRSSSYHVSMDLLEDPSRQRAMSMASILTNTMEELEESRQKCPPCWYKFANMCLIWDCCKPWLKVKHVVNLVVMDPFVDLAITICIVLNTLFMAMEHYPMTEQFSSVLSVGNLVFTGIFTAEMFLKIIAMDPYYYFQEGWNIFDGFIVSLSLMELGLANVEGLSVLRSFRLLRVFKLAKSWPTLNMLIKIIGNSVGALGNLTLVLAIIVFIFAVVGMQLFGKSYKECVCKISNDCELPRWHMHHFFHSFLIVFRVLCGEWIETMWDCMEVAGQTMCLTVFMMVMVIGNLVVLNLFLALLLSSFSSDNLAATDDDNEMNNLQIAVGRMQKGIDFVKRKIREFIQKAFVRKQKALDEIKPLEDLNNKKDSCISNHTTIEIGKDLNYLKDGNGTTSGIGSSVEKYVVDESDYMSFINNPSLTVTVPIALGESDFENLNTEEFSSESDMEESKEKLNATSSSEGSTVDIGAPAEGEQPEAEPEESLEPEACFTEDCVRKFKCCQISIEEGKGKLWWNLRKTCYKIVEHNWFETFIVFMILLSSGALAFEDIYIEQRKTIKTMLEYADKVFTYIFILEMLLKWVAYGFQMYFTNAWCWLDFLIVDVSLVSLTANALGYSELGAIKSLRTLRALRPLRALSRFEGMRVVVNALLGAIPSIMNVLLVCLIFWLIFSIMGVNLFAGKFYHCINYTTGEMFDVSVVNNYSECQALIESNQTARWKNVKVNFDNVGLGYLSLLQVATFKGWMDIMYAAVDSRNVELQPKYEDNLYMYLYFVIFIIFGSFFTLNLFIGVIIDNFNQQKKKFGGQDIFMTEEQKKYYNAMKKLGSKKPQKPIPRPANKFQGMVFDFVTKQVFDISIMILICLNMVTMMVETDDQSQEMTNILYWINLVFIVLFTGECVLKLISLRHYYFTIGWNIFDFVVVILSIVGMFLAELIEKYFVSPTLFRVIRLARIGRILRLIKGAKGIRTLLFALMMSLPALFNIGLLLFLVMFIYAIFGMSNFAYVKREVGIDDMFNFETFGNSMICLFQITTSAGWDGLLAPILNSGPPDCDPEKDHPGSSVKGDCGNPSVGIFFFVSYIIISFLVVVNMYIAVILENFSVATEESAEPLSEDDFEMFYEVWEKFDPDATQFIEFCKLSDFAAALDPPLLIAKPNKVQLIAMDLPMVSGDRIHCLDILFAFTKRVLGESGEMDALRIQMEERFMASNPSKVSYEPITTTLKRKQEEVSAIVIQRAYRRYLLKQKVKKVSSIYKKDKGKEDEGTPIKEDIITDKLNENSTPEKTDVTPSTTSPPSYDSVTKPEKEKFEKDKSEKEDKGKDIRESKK

Sequence of UniProt Q15858 (Q15858 whole entry): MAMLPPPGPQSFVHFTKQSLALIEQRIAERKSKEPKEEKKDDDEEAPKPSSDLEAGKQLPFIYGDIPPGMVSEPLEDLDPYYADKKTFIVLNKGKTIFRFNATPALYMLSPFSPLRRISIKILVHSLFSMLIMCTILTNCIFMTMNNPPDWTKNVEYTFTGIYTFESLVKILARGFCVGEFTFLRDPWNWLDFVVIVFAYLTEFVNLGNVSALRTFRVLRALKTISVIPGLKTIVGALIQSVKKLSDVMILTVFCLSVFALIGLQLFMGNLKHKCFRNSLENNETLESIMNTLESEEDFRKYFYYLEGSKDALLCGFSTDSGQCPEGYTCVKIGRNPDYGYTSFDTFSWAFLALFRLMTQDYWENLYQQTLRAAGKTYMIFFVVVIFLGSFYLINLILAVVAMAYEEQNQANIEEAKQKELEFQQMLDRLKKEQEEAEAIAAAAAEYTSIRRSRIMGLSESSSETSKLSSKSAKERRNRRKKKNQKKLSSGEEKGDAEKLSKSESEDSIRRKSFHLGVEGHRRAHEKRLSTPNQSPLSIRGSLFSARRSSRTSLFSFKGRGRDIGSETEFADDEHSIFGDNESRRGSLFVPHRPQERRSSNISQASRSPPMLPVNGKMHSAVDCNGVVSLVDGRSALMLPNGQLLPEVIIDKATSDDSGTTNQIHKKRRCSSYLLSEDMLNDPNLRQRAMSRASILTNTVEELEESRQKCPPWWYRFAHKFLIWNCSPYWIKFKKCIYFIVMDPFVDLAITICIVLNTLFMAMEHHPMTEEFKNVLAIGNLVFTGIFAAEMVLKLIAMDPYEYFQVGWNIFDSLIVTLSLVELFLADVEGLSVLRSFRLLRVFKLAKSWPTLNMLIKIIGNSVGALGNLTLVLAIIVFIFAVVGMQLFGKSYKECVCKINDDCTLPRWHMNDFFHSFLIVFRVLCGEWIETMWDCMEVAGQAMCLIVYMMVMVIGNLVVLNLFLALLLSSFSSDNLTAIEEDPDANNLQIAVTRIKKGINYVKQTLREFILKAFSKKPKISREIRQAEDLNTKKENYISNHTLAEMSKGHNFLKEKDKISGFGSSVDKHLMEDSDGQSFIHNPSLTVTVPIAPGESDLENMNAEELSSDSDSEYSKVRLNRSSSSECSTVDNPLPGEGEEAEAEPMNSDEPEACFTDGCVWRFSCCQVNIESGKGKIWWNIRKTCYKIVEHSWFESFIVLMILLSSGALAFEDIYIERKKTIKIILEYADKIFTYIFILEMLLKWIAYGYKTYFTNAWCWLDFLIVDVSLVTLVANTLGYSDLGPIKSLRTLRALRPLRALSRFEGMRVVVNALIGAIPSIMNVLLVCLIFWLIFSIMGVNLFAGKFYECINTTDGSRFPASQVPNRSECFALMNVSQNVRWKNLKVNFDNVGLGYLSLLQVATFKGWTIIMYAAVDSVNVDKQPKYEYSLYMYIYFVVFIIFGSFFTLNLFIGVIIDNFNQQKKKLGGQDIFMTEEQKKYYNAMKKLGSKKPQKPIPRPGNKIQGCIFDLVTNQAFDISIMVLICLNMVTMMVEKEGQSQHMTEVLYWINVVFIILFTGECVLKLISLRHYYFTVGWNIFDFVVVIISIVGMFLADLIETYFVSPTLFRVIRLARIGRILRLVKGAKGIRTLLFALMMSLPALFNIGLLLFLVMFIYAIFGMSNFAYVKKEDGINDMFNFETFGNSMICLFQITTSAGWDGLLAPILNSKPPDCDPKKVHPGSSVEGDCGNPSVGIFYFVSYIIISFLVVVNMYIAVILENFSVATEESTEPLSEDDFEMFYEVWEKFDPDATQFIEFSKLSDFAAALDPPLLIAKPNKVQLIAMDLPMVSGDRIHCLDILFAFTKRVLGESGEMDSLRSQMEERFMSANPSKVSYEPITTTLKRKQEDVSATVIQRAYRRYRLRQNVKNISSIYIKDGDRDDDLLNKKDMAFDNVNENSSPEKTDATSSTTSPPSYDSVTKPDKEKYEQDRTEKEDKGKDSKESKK

A word on the Kd: it is the equilibrium constant for the complex coming apart. Turning to “mu-conotoxin KIIIA (from UniProt P0C195)”, the Kd with NaV1.7 (Homo sapiens) is 97 nM; in data set [1], 37 nM; in data set [2], 5 nM.
